Experimental data: US20220332804A1 (CSL INNOVATION, published 2022)
Substitutions are numbered along the chain they refer to.

What was measured:
Experiment in all cases: SPR, antibody captured, C2 as analyte;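 further: biacore SPR at 37 °C, anti-C2 mAbs captured via goat anti-human IgG on CM5 chips, double-referenced sensorgrams fit to a 1:1 kinetic or steady-state model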
[1] = target: T1, human C2 T647A (human, UniProt P06681 21-752)
T1 sequence: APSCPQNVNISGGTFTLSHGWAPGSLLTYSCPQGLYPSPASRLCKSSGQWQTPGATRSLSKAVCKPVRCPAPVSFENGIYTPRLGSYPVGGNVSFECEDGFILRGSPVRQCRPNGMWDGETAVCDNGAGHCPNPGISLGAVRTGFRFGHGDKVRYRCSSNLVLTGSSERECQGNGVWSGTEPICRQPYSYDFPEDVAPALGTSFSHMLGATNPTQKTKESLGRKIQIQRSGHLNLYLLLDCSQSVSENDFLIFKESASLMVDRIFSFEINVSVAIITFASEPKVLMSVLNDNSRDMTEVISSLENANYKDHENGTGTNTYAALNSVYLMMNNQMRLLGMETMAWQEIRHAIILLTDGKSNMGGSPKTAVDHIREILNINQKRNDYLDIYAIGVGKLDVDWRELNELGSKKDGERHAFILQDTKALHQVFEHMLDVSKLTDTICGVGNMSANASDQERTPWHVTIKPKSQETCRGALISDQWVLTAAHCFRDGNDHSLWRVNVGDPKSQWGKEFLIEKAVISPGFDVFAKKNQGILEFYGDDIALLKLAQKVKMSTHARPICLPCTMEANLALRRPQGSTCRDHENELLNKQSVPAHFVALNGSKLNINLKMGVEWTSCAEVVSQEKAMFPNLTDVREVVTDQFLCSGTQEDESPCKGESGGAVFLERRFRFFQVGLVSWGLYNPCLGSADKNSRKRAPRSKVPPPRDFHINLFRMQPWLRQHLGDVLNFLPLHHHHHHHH
Experimental: (§1) Surface plasmon resonance (SPR, Biacore) was used for all binding affinity analyses. In brief, goat anti-human IgG was directly immobilised onto the carboxymethyl dextran surface of CM5 sensorchips to approximately 12,000 RU using standard NHS/EDC chemistry at pH 5. The immobilised antibody surface was pre-conditioned with ten injections of polyclonal human IgG (Privigen 60 s) prepared at 1 μg/mL. Ligands (anti-C2 mAbs) were captured at the beginning of each cycle as described below. An adjacent spot or flow cell in which only Polyclonal IgG was capture was used as a reference surface. The goat anti-human IgG Fc antibody surface was regenerate in 100 mM H3PO4, injected for 45 seconds at the end of each cycle. Experiments were performed at 37° C. and the flow rate of each experiment was kept constant at 30 μL/min.
(§2) Sensogram data was double-referenced against a reference anti-IgG surface (i.e. minus anti-C2 mAb) and blank buffer injections obtained within each experiment. The binding data was fit to 1:1 (kinetic or steady-state) model using local Rmax and null refraction index (RI=0) when appropriate. Buffers and solutions were filtered (0.22 μm) prior to use.

[2] = target: T2, human C2 K329A (human, UniProt P06681 21-752)
T2 sequence: T1 sequence with K309A, A627T
Experimental: as §1, §2

[3] = target: T3, human C2 K531A (human, UniProt P06681 21-752)
T3 sequence: T1 sequence with K511A, A627T
Experimental: as §1, §2

[4] = target: T4, human C2 D269A (human, UniProt P06681 21-752)
T4 sequence: T1 sequence with D249A, A627T
Experimental: as §1, §2

B1: RF16-226 (antibody, human IgG4 S228P, lambda)
heavy: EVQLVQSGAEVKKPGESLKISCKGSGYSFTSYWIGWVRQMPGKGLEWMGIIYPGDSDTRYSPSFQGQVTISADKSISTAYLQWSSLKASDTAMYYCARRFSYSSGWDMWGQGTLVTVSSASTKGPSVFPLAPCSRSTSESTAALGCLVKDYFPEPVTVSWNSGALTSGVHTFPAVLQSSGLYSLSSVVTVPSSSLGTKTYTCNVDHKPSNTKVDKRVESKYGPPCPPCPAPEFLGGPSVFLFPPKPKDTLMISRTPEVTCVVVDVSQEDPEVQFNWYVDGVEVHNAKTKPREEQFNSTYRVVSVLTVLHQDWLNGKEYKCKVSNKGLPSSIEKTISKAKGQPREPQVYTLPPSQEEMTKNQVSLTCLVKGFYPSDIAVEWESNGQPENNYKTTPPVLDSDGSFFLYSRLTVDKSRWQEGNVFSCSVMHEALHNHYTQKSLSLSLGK
light: SYELTQPPSVSVSPGQTARITCSGDALTSKYVAWYQQKSGLAPLLVIYEDTRRPSGIPAKFSGSSSGSVATLTISGAHGDDEADYYCYSTDASGHQRVFGGGTKLTVLSQPKAAPSVTLFPPSSEELQANKATLVCLISDFYPGAVTVAWKADGSPVKAGVETTKPSKQSNNKYAASSYLSLTPEQWKSHRSYSCQVTHEGSTVEKTVAPTECS
notes: pH-dependent anti-C2 antibody from a phage display library; also called WT
B1 was tested, and the Kd [1] was 147 nM, the Kd [2] was 25.6 nM and the Kd [3] was 12.1 nM. It also gave a Kd [4] of 13.1 nM.
